According to the RNAGym collection of RNA variant scans (doi:10.1073/pnas.2313332121):

B1: TPR t1 (parent)
chain: GACCAAUCUGCCCUCAGAGCUCGAGAACAUCUUCGGAUGCAGAGGAGGCAGGCUUCGGUGGCGCGAUAGCGCCAACGUCCUCAACCUCCAAUGCAUCCCACCACAUGAUGAUGCCUGAAGAGCCUUGGUUUUUUG

Variants of: B1
Experiment: polymerase ribozyme fitness, log enrichment relative to wild type (log ratio); higher = more active; in vitro selection for triplet polymerase activity
How it was run: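 For each subunit of a heterodimeric triplet polymerase ribozyme, a mutant library was built by PCR and transcribed, then taken through a single in vitro selection round in triplicate. Selection involved annealing to a biotinylated primer, the partner subunit and triplets, incubation frozen at −7 °C, gel excision of extended constructs, capture on streptavidin beads and RT-PCR. Genotypes were retained after Illumina sequencing of inputs and outputs only with ≥10 input reads and ≥1 read in each output. Fitness is defined as the logarithm of a genotype's enrichment relative to wild-type enrichment, using inverse-variance-weighted averages across replicates, with the logarithm taken to base 2.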

Variant | polymerase ribozyme fitness (log ratio)
GACCAAUCUGCCCUCAGAGCUCGAGAACAUCUUCGGGUGCAGAGGAGGCAGGCUUCGGUGGCGUGAUAGCGCCAACGUCCUCAACCUCCAAUGCAUCCCACCACAUGAUGAUGCCUGAAGAGCCUUGGUUUUUUG [A37G C64U] | -0.479
GACCAAUCUGCCCUCAGAGCUCGAGAACAUCUUCGGCUGCAGAGAAGGCAGGCUUCGGUGGCGCGAUAGCGCCAACGUCCUCAACCUCCAAUGCAUCCCACCACAUGAUGAUUCCUGAAGAGCCUUGGUUUUUUG [A37C G45A G113U] | -4.52
GACCAAUCUGCCCUCAGAGCUCGAGAACAUCUUCGGCUGCAGAGGAGGCAGGCUUCGGUGGCACGAUAGCGCCAACGUCCUCAACCUCCAAUGCAUCCCACCACAUGAUGAUGCCUGAAGAGCCUUGGUUUUUUG [A37C G63A] | -0.905
GACCAAUCUGCCCUCAGAGCUCGAGAACAUCUUCGGCUGCAGAGGAGGCAGUCUUCGGUGGCGCGAUAGCGCCAACGUCAUCAACCUCCAAUGCAUCCCACCACAUGAUGAUGCCUGAAGAGCCUUGGUUUUUUG [A37C G52U C80A] | -4.05
GACCAAUCUGCCCUCAGAGCUCGAGAACAUCUUCGGCUGCAGAGGAGGCAGGCUUCGGUAGCGCGAUAGCGCCAACGUCCUCAACCUCCAAUGCAUCCCACAACAUGAUGAUGCCUGAAGAGCCUUGGUUUUUUG [A37C G60A C102A] | -3.1
GACCAAUCUGCCCUCAGAGCUCGAGAACAUCUUCGGGUGCAGAGGAGGCCGGCUUCAGUGGCGCGAUAGCGCCAACGUCCUCAACCUCCAAUGCAUCCCACCACAUGAUGAUGCCUCAAGAGCCUUGGUUUUUUG [A37G A50C G57A G117C] | -6.92
GACCAAUCUGCCCUCAGAGCUCGAGAACAUCUUCGGGUGCAGAGGAGGCAGGCUUCGGUGGCGCGAUAGCGACAACGUCCUCAGCCUCCAAUGCAUCCCACCACAUGAUGAUGCCUGAAGAGCCUUGGUUUUUUG [A37G C72A A84G] | -1.24
GACCAAUCUGCCCUCAGAGCUCGAGAACAUCUUCGGGUGCAGAGGAGGCAGGCUUCGGUGGCGUGAUAGCGCCAACGUCCUCAACCUUCAAUGCAUCCCACCACAUGAUGAUGCCUGAAGUGCCUUGGUUUUUUG [A37G C64U C88U A121U] | -0.585
GACCAAUCUGCCCUCAGAGCUCGAGAACAUCUUCGGGUGCAGAGGAGGGAGGCUUCGGUGGCGCGAUAGCGCCAACGUCCUCAACCUCCAAUGCAUCCCACCACAUGAUGUUGCCUGAAGAGCCUGGGUUUUUUG [A37G C49G A111U U126G] | -6.22
GACCAAUCUGCCCUCAGAGCUCGAGAACAUCUUCGGGUGCAGAGGGGGCAGGCUUCGGUGGCGCGAUAGCGCCAACGUCCUCCACCUCCAAUGCAUCCCACCACAUGAUGAUGCCUGAAGAGCCUUGGUUUUUUG [A37G A46G A83C] | -2.03
GACCAAUCUGCCCUCAGAGCUCGAGAACAUCUUCGGCUGCAGAGGAGGCAGGCUUCGGUGGCGCGAUAGCGCCAAGGUCCUCAACCUCCAAUGCAUCCCACCACAUGAUGAUGCCUGAAGAGCCUUGGUUUUUUG [A37C C76G] | -0.251
GACCAAUCUGCCCUCAGAGCUCGAGAACAUCUUCGGCUACAGAGGAGGCAGGCUUCGGUGACGCGAUAGCGCCAACGUCCUCAACCUCCAAUGCAUCCCACCACAUGAUGAAGCCGGAAGAGCCUUGGUUUUAUG [A37C G39A G61A U112A U116G U133A] | -3.64
GACCAAUCUGCCCUCAGAGCUCGAGAACAUCUUCGGCUGCAGAGGAGGCAGGCUUCGGUGGCGCGAUAGCGCCAACGUACUCAACCUCCAAUGUAUCCCACCACAUGAUGAUGCCUGAAGAGCCUUGGUUUUUUG [A37C C79A C94U] | -2.07
GACCAAUCUGCCCUCAGAGCUCGAGAACAUCUUCGGGUGCAGAGGAGGCAGGCUUCGGUGGCGCGAUAGCGCCAACGUCCUCAACCUCAAAUGCAUCCCACCACAUGAUGAUGCCUGAAGAGCCUUGGUUUUUUG [A37G C89A] | -2.41
GACCAAUCUGCCCUCAGAGCUCGAGAACAUCUUCGGCUGCAGAGGAGGCAGGCUUCGGUAGCGCGAUAGCGCCAAGGUCCUCAACCUCCAAUGCAUCCCACCACAUGAUGAUGCCUGAAGAGCCUUGGUUUUUUG [A37C G60A C76G] | -2.7
GACCAAUCUGCCCUCAGAGCUCGAGAACAUCUUCGGGUGCAGAGGAGGCAGGCUUCGGUGGCGCGAUAGCGCCAACGUCCUCAACCUGCAAUGCAUCCCACCACAUGAUGAUGCCUGAAGAGCCUUGGUUUUUUG [A37G C88G] | -2.83
GACCAAUCUGCCCUCAGAGCUCGAGAACAUCUUCGGCUGCAGAGGAGGCAGGCUUCGGUGUCGCGAUAGCGCCAACGUCCUCAACCUCCAAUGCAUCCCACCAUAUGAUGACGCCUGAAGAGCCUUGGUUUUUUG [A37C G61U C104U U112C] | 1.04
GACCAAUCUGCCCUCAGAGCUCGAGAACAUCUUCGGGUGCAGAGGAGGCAGGCUUGGGUGGCGCGAUAGCGCCAACGUCCUCAACCUCCAAUGCACCCCACCACAUGAUGAUGCCUGAAGAGCCUUGGUUUUUUG [A37G C56G U96C] | -0.381
GACCAAUCUGCCCUCAGAGCUCGAGAACAUCUUCGGCUGCAGAGGAGGCAGCCUUCGGUGGCGCGAUAGCGCCAACGUCCUCAACCUCCAAUGCAUCCCACCACAUGAUGAUGCCUAAAGAGCCUUGGUUUUUUG [A37C G52C G117A] | -2.76
GACCAAUCUGCCCUCAGAGCUCGAGAACAUCUUCGGCUGCAGAGGAGGCAGGCUUCGGUGGCGCGAUAACGCCAACGUCCUCAACCUCCAAUGCAUCCCACCACAUGAUGAUGCCUGAAGAGCCUUGGUUUUUUG [A37C G69A] | -3.26
GACCAAUCUGCCCUCAGAGCUCGAGAACAUCUUCGGCUGCAGAGGAGGCAGGCUUCGGUGGCGCGAUAGCGCCAAGGUCCUCAACCUCCAAUGCAUCCCACCACAUGAUGAUGCCUCAAGCGCCUUGGUUUUUUG [A37C C76G G117C A121C] | -5.98

Variant | polymerase ribozyme fitness (log ratio)
GACCAAUCUGCCCUCAGAGCUCGAGAACAUCUUCGGCUGCAGAGGAGGCAGGCUUCGGUGGCCCGAUAGCGCCCACGUCCUCAACCUCCAAUGCAUCCCACCACAUGAUGAUGCCUGAAGAGCCUUGGUUUUUUG [A37C G63C A74C] | -3.35
GACCAAUCUGCCCUCAGAGCUCGAGAACAUCUUCGGGUGCAGAGGAGGCAGGCUUCGGUGGCGCGAUAGCGCCAACGUCCUCCACCUCCAAUGCAUCCCACCACAUGAUGAUGCCUGAAGAGCCAUGGUUUUUUG [A37G A83C U125A] | -0.963
GACCAAUCUGCCCUCAGAGCUCGAGAACAUCUUCGGCUGCAGAGGAGGCAGGCUUCGGUGGCGCGAUAGCGCCAACGUCCUCAACCUCCAAUGCAUCCCACCACAUGAUGAUGCCUGAAAAGCCUUGGUUUUUUG [A37C G120A] | 1.02
GACCAAUCUGCCCUCAGAGCUCGAGAACAUCUUCGGCUGCAGAGUAGGCAGGCUUCGGUGGCGCGAUAGCGCCAACGUCCUCAACCUCCAAUGCAUCCCACCACAUGAUGAUGCCUGAAGAGACUUGGUUUUUUG [A37C G45U C123A] | -0.836
GACCAAUCUGCCCUCAGAGCUCGAGAACAUCUUCGGCUGCAGAGGAGGCAGGCUUCGGUGGCGCGAUAUCGCCAACGUCCUCAACCUCCAAUGCAGCCCACCACAUGAUGAUGCCUGAAGAGCCUUGGAUUUUUG [A37C G69U U96G U129A] | -0.113
GACCAAUCUGCCCUCAGAGCUCGAGAACAUCUUCGGGUGCAGUGGAGGCAGACUUCUGUGGCGCGAUAGCGCCAACGUCCUCAACCUCCAAUGCAUCUCACCACAUGAUGAUGCCUGAAGAGCCUUGGUUUUUUG [A37G A43U G52A G57U C98U] | -5.9
GACCAAUCUGCCCUCAGAGCUCGAGAACAUCUUCGGGUACAGAGGAGGCAGGCUUCGGUGGCGCGAUAGCGCCAACGUCCUCAACGUCCAAUGCAUCCCACCACAUGAUGAUGCCUGAAGAGCCUUGGUUUUUUG [A37G G39A C86G] | -3.13
GACCAAUCUGCCCUCAGAGCUCGAGAACAUCUUCGGGUGCAGAGGAGGCAGGCUUCGGUGGCGCGAUAGCGCAAACGUCCUCAACCUCCAAUGCAACCCACCACAUGAUGAUGCCUGAAGAGCCUUGGUUUUUUG [A37G C73A U96A] | -3.88
GACCAAUCUGCCCUCAGAGCUCGAGAACAUCUUCGGGUGCAGAGGAGGCAGGCUUCGGUGGAGCGAUAGCGCCAACGUCCUCAACCUCCAAUUCAUCCCACCACAUGAUGAUGCCUGAAGGGCCUUGGUUUUUUG [A37G C62A G93U A121G] | -3.43
GACCAAUCUGCCCUCAGAGCUCGAGAACAUCUUCGGCUGCAGAGGAGGCAGGCUUCGGUGGCGCGAUAGCGCCAACGUCCUCAACCUCCAAUACAUCCCACCACAUGAUGAUGCCUGAAGAGCCUUGGUUUUUUG [A37C G93A] | -0.971
GACCAAUCUGCCCUCAGAGCUCGAGAACAUCUUCGGCUGCAGAGGAGGCAGGCUUCGGUGGCGCGAUAGCGCCAACGUCCUCAACCUCCAAUGCAUCCCACCACAUGAUGAUGCCUGAAGAUCCUUGGUUUUUUG [A37C G122U] | -0.263
GACCAAUCUGCCCUCAGAGCUCGAGAACAUCUUCGGCUGCAGAGGAGGCAGGCUUCGGUGGCGCGAUAGAGUCAACGUCCUCAACCUCCAAUGCAUCCCACCACAUGAUGAUGCCUGAAUAGCCUUGGUUUUUUG [A37C C70A C72U G120U] | -1.56
GACCAAUCUGCCCUCAGAGCUCGAGAACAUCUUCGGGUGCAGAGGAGGCUGGCUUCGGUGGCGCGAUAGCGCCAACGUCCUCAACCUCCAAUGUAUCCCACCAUAUGAUGAUGCCUCAAGAGCCUUGGUUUUUUG [A37G A50U C94U C104U G117C] | -5.89
GACCAAUCUGCCCUCAGAGCUCGAGAACAUCUUCGGCUGCAGAGGAGGCAGGCUUCGGUGGCGCCAUAGCGCCAACGUCCUCAACCUCCAAUGCAUCCCACCACAUGAUGAUGCCUGAAGUGCCUUGGUUUUUUG [A37C G65C A121U] | -5.06
GACCAAUCUGCCCUCAGAGCUCGAGAACAUCUUCGGCUGCAGAGGAGGCAGGCUUCGGUGUCGCGAUAGCGCUAACGUCCUCAACCUCCAAUGCAUCCCACCACAUGAUGAUGCCUGAAGAGCCUUGGUUUUUUG [A37C G61U C73U] | -1.35
GACCAAUCUGCCCUCAGAGCUCGAGAACAUCUUCGGGUGCAGAGGAGGCAGGCUUCGGUGGCGCGAUAGCGCCAACGUCCUCAACCUCCAAUGCAUCCCACCACAUGAUGAUGCCUGUAGAGCCUUGGUUUUUUG [A37G A118U] | 0.234
GACCAAUCUGCCCUCAGAGCUCGAGAACAUCUUCGGCUGCAGAGGAGCCAGGCUUCGGUGGCGCGAUAGCGCCAACGUCCUCAACCUCCAAUGCAUCCCACCACAUGAUGAUGCCUGAAGAGCCUUGGUUUUUUG [A37C G48C] | -1.64
GACCAAUCUGCCCUCAGAGCUCGAGAACAUCUUCGGCUGCAGAGUAGGCAGGCUUCGGUGCCGCGAUAGCGCCAACGUCCUCAACCUCCAAUGCAUCCCACCACAUGAUGAUGCCUGAAGAGACUUGGUUUUUUG [A37C G45U G61C C123A] | -3.45
GACCAAUCUGCCCUCAGAGCUCGAGAACAUCUUCGGCUGCAGAGGAGGCAGACUUCGGUGGCGCGAUAUCGCCAACGUCCUCAACCUCCAAUGCAUCCCACCACAUGAUGAUGGCUGAAGAGUCUUGGUUUUUUG [A37C G52A G69U C114G C123U] | -2.89
GACCAAUCUGCCCUCAGAGCUCGAGAACAUCUUCGGGUGCAGAGGAGGCAGGCUUCGGUGGCGCGAUAGCGCCAACGUCCUCAACCUCCAAUGCCUCCCACCACAUGAUGAUGCCUGAAGAGCCUUGGUUUUUUG [A37G A95C] | -1.66
GACCAAUCUGCCCUCAGAGCUCGAGAACAUCUUCGGCUGCAGAGGAGGCAGGCUUCGGUGGCGCGAUAGCGCCAACGUCCUCAACCUCCAAUGCAUCCCACCACAUGAUGAUGCUUGAAGAGCCUUGGUAUGUUG [A37C C115U U130A U132G] | -1.99
